This assay has as its target T1, native human C1q (CompTech) (human, UniProt P02745 23-245; P02746 28-253; P02747 29-245).
T1 construct: the three subunits are from general knowledge; also called hC1q
Nature of the assay: SPR (BIACORE T200, 37 C, pH 7.4), hC1r2s2 captured by immobilised IPN009VH2Vk3-SG1148, hC1q 100 nM then buffer, response normalised to C1r2s2 = 100 RU. The source says: As the amount of capture, 200 resonance unit (RU) was aimed. […] The sensor surface was regenerated every cycle, using 3 M MgCl₂ (prepared in-house). The sensorgrams were obtained using BIACORE® T200 evaluation software, version 2.0 (Cytiva). […] For comparison of these sensorgrams, binding response of C1r2s2 was normalized as 100 RU.
(SPR reads the build-up and loss of mass on a sensor chip optically.)

T1 sequence (P02745 23-245 limits assumed, chain 1 of 3): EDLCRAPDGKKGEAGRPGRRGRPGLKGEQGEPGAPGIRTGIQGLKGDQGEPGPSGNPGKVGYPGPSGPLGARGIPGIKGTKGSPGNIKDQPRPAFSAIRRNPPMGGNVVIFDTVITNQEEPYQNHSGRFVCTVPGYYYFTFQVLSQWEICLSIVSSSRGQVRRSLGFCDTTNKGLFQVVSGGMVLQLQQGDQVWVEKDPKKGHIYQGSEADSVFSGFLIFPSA
T1 sequence (P02746 28-253 limits assumed, chain 2 of 3): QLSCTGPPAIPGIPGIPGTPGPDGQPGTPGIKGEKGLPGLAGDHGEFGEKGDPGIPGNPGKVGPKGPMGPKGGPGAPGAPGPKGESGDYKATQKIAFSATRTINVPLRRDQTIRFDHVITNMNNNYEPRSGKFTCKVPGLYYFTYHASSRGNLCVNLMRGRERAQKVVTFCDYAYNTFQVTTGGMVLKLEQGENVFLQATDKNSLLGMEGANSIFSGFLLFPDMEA
T1 sequence (P02747 29-245 limits assumed, chain 3 of 3): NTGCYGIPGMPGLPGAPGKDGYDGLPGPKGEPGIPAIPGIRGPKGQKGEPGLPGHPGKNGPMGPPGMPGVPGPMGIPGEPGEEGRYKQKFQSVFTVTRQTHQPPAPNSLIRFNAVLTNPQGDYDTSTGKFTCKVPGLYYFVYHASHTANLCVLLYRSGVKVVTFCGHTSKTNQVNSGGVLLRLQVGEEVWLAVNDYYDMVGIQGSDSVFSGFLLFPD

B1: recombinant human C1r2s2 tetramer (other)
chain 1: EPTMYGEILSPNYPQAYPSEVEKSWDIEVPEGYGIHLYFTHLDIELSENCAYDSVQIISGDTEEGRLCGQRSSNNPHSPIVEEFQVPYNKLQVIFKSDFSNEERFTGFAAYYVATDINECTDFVDVPCSHFCNNFIGGYFCSCPPEYFLHDDMKNCGVNCSGDVFTALIGEIASPNYPKPYPENSRCEYQIRLEKGFQVVVTLRREDFDVEAADSAGNCLDSLVFVAGDRQFGPYCGHGFPGPLNIETKSNALDIIFQTDLTGQKKGWKLRYHGDPMPCPKEDTPNSVWEPAKAKYVFRDVVQITCLDGFEVVEGRVGATSFYSTCQSNGKWSNSKLKCQPVDCGIPESIENGKVEDPESTLFGSVIRYTCEEPYYYMENGGGGEYHCAGNGSWVNEVLGPELPKCVPVCGVPREPFEEKQRIIGGSDADIKNFPWQVFFDNPWAGGALINEYWVLTAAHVVEGNREPTMYVGSTSVQTSRLAKSKMLTPEHVFIHPGWKLLEVPEGRTNFDNDIALVRLKDPVKMGPTVSPICLPGTSSDYNLMDGDLGLISGWGRTEKRDRAVRLKAARLPVAPLRKCKEVKVEKPTADAEAYVFTPNMICAGGEKGMDSCKGDSGGAFAVQDPNDKTKFYAAGLVSWGPQCGTYGLYTRVKNYVDWIMKTMQENSTPRED
chain 2: SIPIPQKLFGEVTSPLFPKPYPNNFETTTVITVPTGYRVKLVFQQFDLEPSEGCFYDYVKISADKKSLGRFCGQLGSPLGNPPGKKEFMSQGNKMLLTFHTDFSNEENGTIMFYKGFLAYYQAVDLDECASRSKLGEEDPQPQCQHLCHNYVGGYFCSCRPGYELQEDRHSCQAECSSELYTEASGYISSLEYPRSYPPDLRCNYSIRVERGLTLHLKFLEPFDIDDHQQVHCPYDQLQIYANGKNIGEFCGKQRPPDLDTSSNAVDLLFFTDESGDSRGWKLRYTTEIIKCPQPKTLDEFTIIQNLQPQYQFRDYFIATCKQGYQLIEGNQVLHSFTAVCQDDGTWHRAMPRCKIKDCGQPRNLPNGDFRYTTTMGVNTYKARIQYYCHEPYYKMQTRAGSRESEQGVYTCTAQGIWKNEQKGEKIPRCLPVCGKPVNPVEQRQQIIGGQKAKMGNFPWQVFTNIHGRGGGALLGDRWILTAAHTLYPKEHEAQSNASLDVFLGHTNVEELMKLGNHPIRRVSVHPDYRQDESYNFEGDIALLELENSVTLGPNLLPICLPDNDTFYDLGLMGYVSGFGVMEEKIAHDLRFVRLPVANPQACENWLRGKNRMDVFSQNMFCAGHPSLKQDACQGDAGGVFAVRDPNTDRWVATGIVSWGIGCSRGYGFYTKVLNYVDWIKKEMEEED
notes: C1s and C1r co-expressed in HEK293 and purified from the supernatant as tetramer; also called hC1r2s2
Turning to B1, the binding result is “binds”.

Values taken from patent US20240287163A1 (Chugai, published 2024).
